The values that follow come from paper PMC9556597.

The test has as its target AV-1980R recombinant protein (3xTau2-18-MultiTEP) (human) (UniProt P10636). The experiment in a line: AUC; protein in 3.2 M urea.

Usually stoichiometry N stands for the number of molecules, sites or subunits per partner or assembly. For the substance “AV-1980R recombinant protein (3xTau2-18-MultiTEP) (from UniProt P10636 2-18; P10636 2-18; P10636 2-18)”, the stoichiometry N was found to be 4.
